Test results published in patent publication US11707504B1 (KING FAISAL UNIVERSITY, dated 2023).

Target: HCoV-229E spike (S) protein, S2 subunit fusion core (HR1/HR2) (human coronavirus 229E, UniProt P15423)
Test: cell-based or functional assay

Binder: SLTQINTTLLDLTYEMLSLQQVVKALNESYIDLKEL [peptide #1 (Peptide 1 (WT))]
- IC50 (plaque reduction test, Vero E6 cells): 8.5 µg/mL
